Experimental findings from the nanobody polyreactivity screen of Harvey et al. (2022) are described below.

A short description of the series: yeast display, Sf9 membrane polyspecificity reagent, FACS + sequencing; frameworks hold sequencing errors. In a few lines: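 A synthetic nanobody library was expressed on Saccharomyces cerevisiae BJ5465 by galactose induction for 36–48 hours. The library was stained for 1 hour at 4 °C with 10% biotinylated, detergent-solubilized Sf9 membrane reagent and enriched with streptavidin microbeads before FACS. Low and high (top ~1%) gates were set on anti-HA fluorescence for expression and streptavidin fluorescence for reagent binding, and each polyreactivity label reflects the gate of origin.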
As for “QVQLVESGGGLVQAGGSLRLSCAASGFTFGIYAMGWYRQAPGKERELVAAISRGGGSTYYADSVKGRFTISRDNAKNTVYLQMNSLKPEDTAVYYCAARYQSPYDYWGQGTQVTVSS”, the “polyreactivity (PSR sort gate)” value is “high polyreactivity”.
With “QVQLVESGGGLVQAGGSLRLSCAASGNICITYAMGWYRQAPGKEREFVAAISRRRGRTYYADSVKARFTISRDKAKNTVYLQMNSLKPVDTAVYYCAADPATSVYGGLNYWGQVTQVTVSS” the entry was “high polyreactivity”; with “QVQLVESGGGLVQAGGSLRLSCAASGRTFWYYTMGWYRQAPGKERELVAANTSVGSTYYADSVKGRFTISRDNAKNTVYLQMNSLKPEDTAVYYCATLYSYTHQSFDHWGQGTQVTVSS”, “high polyreactivity”.
For “QVQLVESGGGLLQAGGSLRLSCAASGSIFGGNAMGWYRQAPGKEREFVAAITVSDGSTYYADSVKGRFTISRDNAKNTVYLQMNSLKPEDTAVYYCAAGGFYYPHYDYWGQGSQVTVSS”, the “polyreactivity (PSR sort gate)” value is on record as “low polyreactivity”.
Take “QVQLVESGGGLVQAGGSLRLICAASGRIFDDNAMGWYRQAPGKERELVATISSTGGRTYYADSVKGRFTISRDNAKNTVYLQMNSLKPEDTAVYYCAARRRQGGYYYWGQGTQVTVSS”: the “polyreactivity (PSR sort gate)” value is recorded as “high polyreactivity”.
With “QFQLVESGGGLVQAGGSLRLSCAASGFTFAYYAMGWYRQAPGKERELVAAITYSGGSTYYADSVKGRFTISRDNAKNTVYLQMNSLKPEDTAVYDCAAYPSRRRRGDEDDYWGQGTQVTVSS” the entry was “high polyreactivity”; with “QVQLVESGGGLVQAGGSLRLSCAASGLTFRYYTMGWYRQAPGKERELVASINIRGGSTYYADSVKGRFTISRDNAKNTVYLQMNSLKAEDTSVYYCNNRYGFSFGYWGQGTQVTVSS”, “high polyreactivity”; with “QDQLVETGGGLVQAGCSLRLSCAASGRIFVPYAMGWYRQSHGKERELVAAISGSDGSTYYADSVKGRFTISRDNAKNTVYLQMNRLKPEDTAVYYCARLLIYAPPSGSHRYYPFDYWGQGTQETVSS”, “low polyreactivity”.
With “QVQLVESGGGLVQAGGSLRLSCAASGRTFQFYPMGWYRQAPGKERELVAAIDLRGGSTYYADSVKGRFTISRDNAKNTVYLQMNSLKPEDTAVYYCNADRYTGRDGEQSLDYWGQGTQVTVSS” the entry was “low polyreactivity”; with “QVQLVESGGGLVQAGGSLRLSCAASVRIFAKYAMGWYRQAPGKERELVAAITSGGRTYYADSVKGRFTISRDNAKNTVYLPMNSLKPEDTAVYYCNAVPKSRDWQSYGSWGQGTQVTVSS”, “high polyreactivity”.
To “QVQLVESGGGLVQAGGSLRLSCDASGRILKYNAMGWYRQAPGKERELVAAISGSGGRTYYADSVKGRFTISRDNAKNTVYLQMNSLKPEDTAVYYCAASNASPGGFNYWGQGTQVTVSS” belongs “high polyreactivity”; to “QDQLVESRGGLVQAGGSLRLSCAASGSISVKYAMGWYRQAPGKERELVAAISSDGNTYYADSVKGRFTISRDNAKYNVYLQMNSLKPEDTAVYYCAPAKVSWFGLKYYYWGQGTQVTVSS”, “high polyreactivity”.
On to “QVQLVESGGGLVQAGGSLRLSCAASGSIFDSNAMGWYRQAPGKETELVASITSDGDTYYADSVKGRFTISRDNAKNTVYLQIKSVKPEDTAVYYCAAYVPYSGLDYWGQGTQVTVSS”, for which the “polyreactivity (PSR sort gate)” value is “low polyreactivity”.
To “QVHLVESGGGLVQAGGSLRLSCAASGFTFVRYAMGWYRQAPGKERELVASISYSGGSTYYADSVKGRFTISRDNAKNTVYVQMNSLKPEATAVYYCAAVIYRGYYYWGQGTQVTVSS” belongs “high polyreactivity”; to “QVQLVESGGGLVKAGGSLRLSCAASGFTFAYYAMGWYRQAPGKERELVAAISGSGGSTYYADSVKGRFTISRDNAKNTVYLQMNSLKPEDTAVYYCAAARRSTWSYSYYWGQGTQVTVSS”, “high polyreactivity”; to “QVKLVESGGGLVQAGASLRLSCAASGIISYGNAMGRYRQAPGKERELVASISGISGSTYYADSVKGRFTISRDNAKNTVYLQMNSLKPEDTAVYYCNARYPTYRASYHGDYWGQGTQVTVSS”, “low polyreactivity”.
With “QVQLVESGGGLVQAGGSLRLSCAASGFIFKYYAMGWYRQAPGKERELVATITRRGGSTYYADSVKGRFTISRDNAKNTVYLQMNSLKPEDTAVYYCNVTPDWNARRPFDYWGQGTKVTVSS” the entry was “high polyreactivity”; with “QVQLVESGGGLVQAGGSLRLSCAASGSIFVYYAMGWYRQAPGKERELVARIRIGGSTNYADSVKGRFTISRDNAKNTVYLQMNSLKPEDTAVYYCIKYSVLSRQRYSHPVNYDSWGQGTQVTVSS”, “high polyreactivity”.
With “QVQLVESGGGLVQAGGSLRLSCAASGRTFYYNAMGWYRQAPGKEMELVAVITRGSTYYADSVKGRFTISRDNAKNTVYLQMNSLKPEDTAVYYCAKYRHYHRGYDYWGQGTQVTVSS”, the “polyreactivity (PSR sort gate)” value was “high polyreactivity”.
To “QDQLVESGGGLVQAGGSLRLICAASGLIFGFNTMACYRQAPGKESEFVAAINGSDGSTYADSVKGRFTISRDNAKNTVYLQMNSLKPEDTAVYYCAARYGSPKEYTYADMDYWGQGTQVTVSS” belongs “low polyreactivity”.
As to “QVQLVESGGGLVQAGGSLRLRCASSGITFTLNAMGWYRQAPGKERELVAAISGSGGRTYYADSVKGRFTISRDNAKNTVYLQMNSLKPEDTAVYYCAAAVLDRYTRYIWYIYDYWGQGTQVTVSS”, the “polyreactivity (PSR sort gate)” value is reported as “high polyreactivity”.
With “QVQLVESGGGLVQAGGSLRLSCAASGGIFRWYVMGWYRPEPGKERDFVAAISQSGGSTYYADSVKGRFTISRDNAKNTVYLQMNCLKPEDTAVYYCAAGFYHYRSFNFDYWGQGTQVTVSS”, the “polyreactivity (PSR sort gate)” value is on record as “high polyreactivity”.
With “QVQLVESGVGLVQAGGSLRLSCAASGSIFGRNAMGWYRQAPGKERELVARISYIGGSTYYADSVKGRFTISRDNEKNTVYLQMNSLKPEDTSVYYCAKRYGFGYKRMDYWGQGTQVTVSS” the entry was “low polyreactivity”; with “QVQLVESGGGLVHAGGSLRLSCAASGSIFAYYAMGWYRQAPGKERELVARITYSTDGTYYADSVKGRFTISRDNAKNTVYLQMNSLKPEDTAVYFCAVDTWWGFKRYKFDYWGQGTQVTVSS”, “low polyreactivity”.
To “QVQLVESGGGLVQAGGSLSLSCAASGSTFAYYAMGGYRQAPGKERELVAGITWTGGSTYYADSVKGRFTISRDNAKNTVYLQMNSLKPEDTAVYYCAVTYPYGYEYDHWGQGTQVTVSS” belongs “low polyreactivity”.
With “QVQLVESGGGLVQAGGSLRLSCAASGLIFSWYAMGWYRQAPGKERELVAAISSGSSTNYADSVKGRFTISRDNAKNTVYLQRNSLKPEDTAVYYCAARIYYTSRLRMYYWGQGTQVTVSS” the entry was “high polyreactivity”; with “QVQLVESGGGLVQAGGSLRLSCAASGRIFRGYAMGWYRQAPGKERELVARITSSGSTNYADSVKGRFTISRDNAKNTVYLQMNSLKPEDTAVYYCAADKYYWGTGVWMDYWGQGTQVTVSS”, “high polyreactivity”.
Regarding “QVQLVESGGGLVQAGGSLRLSCAASGSTFGPYVMRWYRQAPGKERELVAGISSSGGSTYYADSVKGRFTISRDNAKNTVYLQMNSLKPEDTAVYYCAAVWTTGWIDSYTAWYSYEYWGQGTQVTVSS”, the “polyreactivity (PSR sort gate)” value is listed as “low polyreactivity”.
As for “QVQLVESGGGLVQAGGSLRLSCAASGYTFTINTMGWYRQAPGKERELVAAITWRGGSTYYADSVKGRFTISRDNANNTVYLQMNSLKPEDTAVYYCNKDYYITTTTFDYWGQGTQVTVSS”, the “polyreactivity (PSR sort gate)” value is given as “low polyreactivity”.
With “QVQLVESGGGLVQAGDSLRLSCGASGRTFYPYAMGWYRQAPGKERELVAAITWSGGSTYYADSVKGRFTISRDNAKNTVYLQMNSLKPEDTAVYFCNAAELTYDLYDYCGQGTQVTVSS” the entry was “low polyreactivity”.
